Data on two molecules can be found in patent US20220169714A1 (published 2022).

Assay [1] has as its target T1, recombinant human CXCL1 protein (human, UniProt P09341 35-107).
T1 sequence: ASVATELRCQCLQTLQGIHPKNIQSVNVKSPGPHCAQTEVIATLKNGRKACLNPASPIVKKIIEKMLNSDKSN
The experiment in a line: apparent affinity-binding constant, in PBS; method not stated (FIG. 1B); in PBS.

For assay [2], the target named is T2, mouse CXCL1 (mouse, UniProt P12850 25-96, limits assumed).
T2 sequence (looked up): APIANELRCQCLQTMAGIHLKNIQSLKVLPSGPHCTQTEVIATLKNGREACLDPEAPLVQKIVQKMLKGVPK
The experiment in a line: Western blot: recombinant CXCL1 loaded at 10, 20 and 30 ng, probed with HL2401. In general terms: In western blotting, separated proteins are transferred to a membrane and probed.

Assay [3] addresses T3, rat CXCL1 (rat, UniProt P14095 25-96, limits assumed).
T3 sequence (looked up): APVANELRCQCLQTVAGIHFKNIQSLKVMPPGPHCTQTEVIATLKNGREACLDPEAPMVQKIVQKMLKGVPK
The assay is described as above.

For assay [4], the target named is T1, recombinant human CXCL1 protein. The experiment in a line: apparent affinity-binding constant, in serum 1:4 dilution; method not stated (FIG. 1B); serum, 1:4 dilution.
For assay [5] the target is unchanged. The assay is described as follows: apparent affinity-binding constant, in serum 1:40 dilution; method not stated (FIG. 1B); serum, 1:40 dilution.
For assay [6] the target is unchanged. The experiment in a line: ELISA on coated human CXCL1 against coated BSA, scFv at 10 and 2 ug/mL, anti-Myc HRP, TMB. The method, then: The human CxCL1 protein was coated onto 96-well, 30 ng for well at 4° C. overnight. The plate was blocked by 3% skim milk in PBS 2 h at room temperature. The plate was washed 3 times with PBST and applied anti-human CXCL1 humanized version scFv antibodies at different dilution concentration. The anti-Myc mouse monoclonal antibody with HRP conjugate antibody was applied and developed with TMB solution.

B1: anti-CXCL1 neutralizing monoclonal mouse antibody (HL2401) (antibody, V domains shown)
VH: EVKLVESGAELVKPGASVKLSCKASGYTFTSYYIYWVKQRPGQGLEWIGEIDPSHGGPTFNEKFKNKATLTVDKSSSTAYMQLSSLTSDDSAVYYCTRESGTGAMDYWGQGTTLTVSS
VL: DIVLTQSPASLAVSLGQRATISCKASQSVDYDGDSYVNWYQQKPGQPPKLLIYAASNLESRIPARFSGSGSGTDFTLNILPVEEDDGATYYCQQSSEDPWTFGGGTKLEIKR
notes: Mouse IgG from hybridoma clone HL2401, purified on protein G; also called CXCL1 mAb (HL2401); CXCL1 monoclonal antibody (HL2401)
For B1, the Kd in assay [1] is 0.176 µg/mL; in assay [4] it was 0.387 µg/mL; in assay [5], 0.252 µg/mL. Moreover, the binding result in assay [2] and in assay [3] was “no binding (tested: 30 ng)” in each case.

B2: HUM2401-ScFv_1 (humanized version 2) (scFv)
scFv: QVQLVESGGGLVQPGGSLRLSCKASGYTFTSYYIYWVRQAPGKGLEWIGEIDPSHGGPTFNEKFKNRFTISRDNSKNTLYLQMNSLRAEDTAVYYCTRESGTGAMDYWGQGTLVTVSSGGGGSGGGGSGGGARGGGGSDIQMTQSPSSLSASVGDRATISCKASQSVDYDGDSYVNWYQQKPGKAPKLLIYAASNLESGIPSRFSGSGSGTDFTLTISSLQPEDFATYYCQQSSEDPWTFGQGTKVEIKR
notes: Detected through a c-Myc tag; also called HumH2401scFv; Hum HL2401_scFv
As for B2, in assay [6], the binding result was “binds”.
